Measurements: IntAct's records for PubMed 25982527

B1: Mitogen-activated protein kinase kinase kinase 3 (Homo sapiens), Q99759 (parent)
chain: MDEQEALNSIMNDLVALQMNRRHRMPGYETMKNKDTGHSNRQSDVRIKFEHNGERRIIAFSRPVKYEDVEHKVTTVFGQPLDLHYMNNELSILLKNQDDLDKAIDILDRSSSMKSLRILLLSQDRNHNSSSPHSGVSRQVRIKASQSAGDINTIYQPPEPRSRHLSVSSQNPGRSSPPPGYVPERQQHIARQGSYTSINSEGEFIPETSEQCMLDPLSSAENSLSGSCQSLDRSADSPSFRKSRMSRAQSFPDNRQEYSDRETQLYDKGVKGGTYPRRYHVSVHHKDYSDGRRTFPRIRRHQGNLFTLVPSSRSLSTNGENMGLAVQYLDPRGRLRSADSENALSVQERNVPTKSPSAPINWRRGKLLGQGAFGRVYLCYDVDTGRELASKQVQFDPDSPETSKEVSALECEIQLLKNLQHERIVQYYGCLRDRAEKTLTIFMEYMPGGSVKDQLKAYGALTESVTRKYTRQILEGMSYLHSNMIVHRDIKGANILRDSAGNVKLGDFGASKRLQTICMSGTGMRSVTGTPYWMSPEVISGEGYGRKADVWSLGCTVVEMLTEKPPWAEYEAMAAIFKIATQPTNPQLPSHISEHGRDFLRRIFVEARQRPSAEELLTHHFAQLMY

Variants of: B1
Conditions: with CCM2, Q9BSQ5-1
CCM2, Q9BSQ5-1, sequence (Q9BSQ5 whole entry): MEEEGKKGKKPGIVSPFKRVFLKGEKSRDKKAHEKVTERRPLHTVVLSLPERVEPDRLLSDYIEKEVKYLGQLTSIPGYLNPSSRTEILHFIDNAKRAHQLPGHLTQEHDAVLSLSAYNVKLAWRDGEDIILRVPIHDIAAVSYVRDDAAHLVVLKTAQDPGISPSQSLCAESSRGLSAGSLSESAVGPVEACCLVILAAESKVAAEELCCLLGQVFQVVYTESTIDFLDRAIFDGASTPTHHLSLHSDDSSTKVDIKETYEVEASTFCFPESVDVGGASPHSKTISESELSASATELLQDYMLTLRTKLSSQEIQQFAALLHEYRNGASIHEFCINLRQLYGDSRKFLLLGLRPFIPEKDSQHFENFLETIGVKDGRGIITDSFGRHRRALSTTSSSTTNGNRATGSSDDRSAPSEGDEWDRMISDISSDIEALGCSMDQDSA

Row | Variant | effect of a mutation on the interaction
1 | I10D | disrupting interaction strength
2 | L7D | disrupting interaction strength

Results, then the variant that gave them:

Row | effect of a mutation on the interaction | Variant
3 | disrupting interaction strength | L14D
4 | disrupting interaction strength | L17D
